Measurements: doi:10.1101/2024.10.07.616643

Target: F-actin (rabbit skeletal muscle α-actin filaments) (rabbit) (UniProt P68135)
Test: co-sedimentation

## F-tractinopt-mCherry (peptide)
  Kd: 8.5 µM
